Source: PMC7617353, “Molecular basis of FIGNL1 in dissociating RAD51 from DNA and chromatin” (Science (New York, N.Y.), 2024)
Changes are numbered by the printed parent chain. Names may count otherwise.

T1: RAD51 (human, UniProt Q06609 1-339, cysteine reactive RED-MALEIMIDE label (only in the MST with labelled RAD51))
T1 chain: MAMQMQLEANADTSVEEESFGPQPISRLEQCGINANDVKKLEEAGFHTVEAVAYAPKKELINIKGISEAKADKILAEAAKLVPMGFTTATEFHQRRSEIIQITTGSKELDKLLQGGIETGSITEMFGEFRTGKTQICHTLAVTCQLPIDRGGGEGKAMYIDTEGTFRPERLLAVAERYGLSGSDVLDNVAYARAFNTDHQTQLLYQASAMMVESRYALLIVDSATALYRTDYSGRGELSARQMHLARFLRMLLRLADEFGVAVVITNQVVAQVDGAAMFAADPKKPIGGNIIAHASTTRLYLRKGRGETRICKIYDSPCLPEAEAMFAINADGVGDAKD

T2: FIGNL1ΔN (human FIGNL1 residues 287-674) (human, UniProt Q6PIW4 287-674)
T2 construct: Monomer by SEC-MALLS after purification; hexamer with ATPγS by cryo-EM; source: E. coli BL21(DE3), purified (HisTrap, StrepTrap, SEC Superdex 200 increase)
T2 sequence (looked up): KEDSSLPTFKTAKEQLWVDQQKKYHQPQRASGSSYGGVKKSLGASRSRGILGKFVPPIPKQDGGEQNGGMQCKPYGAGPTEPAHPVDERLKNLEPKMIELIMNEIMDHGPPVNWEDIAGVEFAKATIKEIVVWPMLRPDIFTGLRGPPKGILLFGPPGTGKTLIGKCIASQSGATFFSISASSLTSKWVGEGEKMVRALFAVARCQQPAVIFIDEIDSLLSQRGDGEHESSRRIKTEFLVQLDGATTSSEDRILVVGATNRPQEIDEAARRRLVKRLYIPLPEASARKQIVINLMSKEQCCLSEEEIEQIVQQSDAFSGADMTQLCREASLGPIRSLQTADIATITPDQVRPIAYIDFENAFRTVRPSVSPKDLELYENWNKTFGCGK

T3: FIGNL1ΔN(E501Q) (human, UniProt Q6PIW4 287-674, E501Q)
T3 sequence: T2 sequence (looked up) with E215Q

T4: FIGNL1ΔN with an N-terminal YBBR-tag, labelled (human, UniProt Q6PIW4 287-674, labelled as previously described (refs 59, 60))
T4 chain: T2 sequence (looked up)

T5: FIGNL1ΔN pore loop 1 mutant (K473E,W474A) (human, UniProt Q6PIW4 287-674, K473E | W474A)
T5 sequence: T2 sequence (looked up) with K187E, W188A

T6: FIGNL1ΔN pore loop 1 mutant (K473E,W474A) (human, UniProt Q6PIW4 287-674, K473E | W474A)
T6 construct: also called PL mutant; source: E. coli BL21(DE3), purified as the wild type (HisTrap, StrepTrap, SEC)
T6 sequence (looked up): T2 sequence (looked up) with K187E, W188A

T7: FIGNL1ΔN with an N-terminal YBBR-tag, labelled (human, UniProt Q6PIW4 287-674, labelled as previously described (refs 59, 60))
T7 sequence (looked up): T2 sequence (looked up)

B1: FIGNL1ΔN (human FIGNL1 residues 287-674) (domain or fragment)
chain: T2 sequence (looked up)
B2: FIGNL1ΔN(E501Q) (domain or fragment, human, UniProt Q6PIW4 287-674, looked up)
chain: T2 sequence (looked up) with E215Q
notes: Six copies in the cryo-EM hexamer with ATP.Mg2+ and RAD51; also called E501Q mutant; source: E. coli BL21(DE3), purified as the wild type (HisTrap, StrepTrap, SEC)
B3: RAD51 (natural protein, human, UniProt Q06609 1-339, looked up)
chain: T1 chain
modifications: cysteine reactive RED-MALEIMIDE label (only in the MST with labelled RAD51)
notes: RAD51, expressed without tags; PDB 8R64 holds only residues 2-13 of it; also called RAD51 recombinase
B4: RAD51ΔN (RAD51 lacking the N-terminal 20 residues) (domain or fragment, human, UniProt Q06609 21-339, looked up)
chain: GPQPISRLEQCGINANDVKKLEEAGFHTVEAVAYAPKKELINIKGISEAKADKILAEAAKLVPMGFTTATEFHQRRSEIIQITTGSKELDKLLQGGIETGSITEMFGEFRTGKTQICHTLAVTCQLPIDRGGGEGKAMYIDTEGTFRPERLLAVAERYGLSGSDVLDNVAYARAFNTDHQTQLLYQASAMMVESRYALLIVDSATALYRTDYSGRGELSARQMHLARFLRMLLRLADEFGVAVVITNQVVAQVDGAAMFAADPKKPIGGNIIAHASTTRLYLRKGRGETRICKIYDSPCLPEAEAMFAINADGVGDAKD
notes: RAD51 lacking the N-terminal 20 residues; also called RAD51 with N-terminal 20 a.a. deleted

Columns and labels:
RAD51 [1] = biological target: T1, RAD51; experiment: MST
[2] = biological target: T2, FIGNL1ΔN (human FIGNL1 residues 287-674); experiment: cryo-EM structure; 5µM FIGNL1ΔN with 1mM ATPγS and 5mM MgCl2, 15 minutes at 37°C in EM buffer; planar hexamer, 9.2Å map
RAD51 [3] = biological target: B3; experiment: cryo-EM structure; 10μM FIGNL1ΔN(E501Q) with 10μM RAD51, 1mM ATP, 5mM MgCl2, 20 mM Tris-HCl pH 8.0, 100 mM NaCl, 10 minutes at 37°C; whole complex ~8 Å, focused hexamer with RAD51 N-terminus 2.9 Å; conditions: both partners purified
[4] = biological target: the molecule itself; experiment: as above
FIGNL1ΔN(E501Q) [5] = biological target: T3, FIGNL1ΔN(E501Q); experiment: MST
[6] = biological target: T4, FIGNL1ΔN with an N-terminal YBBR-tag, …; experiment: MST
[7] = biological target: T5, FIGNL1ΔN pore loop 1 mutant …; experiment: MST
[8] = biological target: T2, FIGNL1ΔN (human FIGNL1 residues 287-674); experiment: MST; 100nM RED-MALEIMIDE labelled RAD51 with a serial dilution of FIGNL1ΔN (and mutants); 20mM Tris pH 8.0, 100mM NaCl, 1mM ATP, 5mM MgCl2, 0.05% TWEEN-20; 25°C; conditions: both partners purified
FIGNL1ΔN(E501Q) [9] = biological target: B2; experiment: as above; conditions: both partners purified
[10] = biological target: T6, FIGNL1ΔN pore loop 1 mutant …; experiment: as above; conditions: both partners purified
[11] = biological target: T7, FIGNL1ΔN with an N-terminal YBBR-tag, …; experiment: MST; 100nM FIGNL1ΔN labelled at an N-terminal YBBR-tag with a serial dilution of RAD51 and RAD51ΔN; measured as in the labelled RAD51 experiments; conditions: both partners purified

Binder: B1
Kd (RAD51 [1]): 328 nM
stoichiometry N [2]: 6

Binder: B2
stoichiometry N (RAD51 [3]): 2 RAD51 monomers per FIGNL1 hexamer
stoichiometry N [4]: 6

Binder: B3
Kd (FIGNL1ΔN(E501Q) [5]): 279 nM
Kd [6]: 109 nM
Kd [7]: 340 nM
binding result [8]: binds
binding result (FIGNL1ΔN(E501Q) [9]): binds
binding result [10]: binds

Binder: B4
Kd [6]: 315 nM
binding result [11]: binds
